Source: publication PMC12370991, “Visualizing acyl carrier protein interactions within a crosslinked type I polyketide synthase” (Nature Communications, 2025)

Tests used:
E. coli FabF (KS) = biological target: T1, E. coli FabF (KS) (E. coli, UniProt P0AAI5 1-413); assay: cross-linking; conditions: both partners purified
T1 construct: FabF, type II FAS ketosynthase, E. coli
T1 sequence (looked up): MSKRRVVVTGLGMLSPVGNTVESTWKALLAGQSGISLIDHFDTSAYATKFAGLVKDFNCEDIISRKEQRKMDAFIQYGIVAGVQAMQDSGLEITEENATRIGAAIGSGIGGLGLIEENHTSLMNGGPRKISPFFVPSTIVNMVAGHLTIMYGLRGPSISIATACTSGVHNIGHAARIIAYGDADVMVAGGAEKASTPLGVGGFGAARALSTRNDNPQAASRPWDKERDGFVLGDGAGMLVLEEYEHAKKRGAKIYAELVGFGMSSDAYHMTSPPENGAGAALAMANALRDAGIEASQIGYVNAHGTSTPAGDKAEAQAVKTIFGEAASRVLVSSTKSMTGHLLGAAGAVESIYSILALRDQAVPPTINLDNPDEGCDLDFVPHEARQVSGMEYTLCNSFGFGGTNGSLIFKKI

E. coli FabA (DH) = biological target: T2, E. coli FabA (DH) (E. coli, UniProt P0A6Q3 2-172); assay: cross-linking; conditions: both partners purified
T2 construct: FabA, type II FAS dehydratase, E. coli
T2 sequence: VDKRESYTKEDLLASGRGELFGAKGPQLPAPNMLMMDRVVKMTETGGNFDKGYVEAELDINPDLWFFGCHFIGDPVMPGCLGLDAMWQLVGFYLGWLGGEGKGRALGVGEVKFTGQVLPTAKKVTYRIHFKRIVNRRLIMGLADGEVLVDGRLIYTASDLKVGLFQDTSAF

binding result (E. coli FabF (KS)): binds
binding result (E. coli FabA (DH)): binds
B1: E. coli crypto-AcpP (acyl carrier protein of the type II FAS loaded with a crosslinker) (natural protein)
chain: MSTIEERVKKIIGEQLGVKQEEVTNNASFVEDLGADSLDTVELVMALEEEFDTEIPDEEAEKITTVQAAIDYINGHQA
modifications: crosslinker 2, 3, 5, 6 or 8 loaded chemoenzymatically (crypto-AcpP)
notes: AcpP, acyl carrier protein of the type II fatty acid synthase, E. coli; also called E. coli ACP; source: crypto-AcpP purified by SEC
